Results: PMC3627822

Tests used:
[1] = target: sochicetin-C (Echis sochureki); test: ELISA
[2] = target: sochicetin-A (Echis sochureki); test: ELISA
[3] = target: sochicetin-B (Echis sochureki); test: ELISA
[4] = target: soluble integrin α2β1 ectodomain (UniProt P17301); test: ELISA
[5] = target: sochicetin-A αβ heterodimer (Echis sochureki); test: SDS-PAGE, non-reduced against reduced and partly reduced + MALDI-TOF

Substance: recombinant GST-tagged integrin α2 A-domain (domain or fragment)
- Kd [1]: 54.5 nM
- Kd [2]: 11.7 nM
- Kd [3]: 17.3 nM

Substance: sochicetin-A (complex)
- IC50 [4]: 59.7 nM

Substance: sochicetin-A αβ heterodimer (complex)
- stoichiometry N [5]: 3

Substance: sochicetin-B (complex)
- IC50 [4]: 32.7 nM

Substance: sochicetin-C (complex)
- IC50 [4]: 1480 nM
